B1: CPEB3 Ribozyme (parent)
chain: UAACAGGGGGCCACAGCAGAAGCGUUCACGUCGCAGCCCCUGUCAGAUUCUGGUGAAUCUGCGAAUUCUGCUGUAUAUCUC

Variants of: B1
Assay: self-cleavage, relative activity (ratio to wild type); higher = more cleavage; in vitro, sequencing
Outline: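 After error-prone PCR and barcoding, CPEB3 ribozyme mutant libraries were transcribed with T7 RNA polymerase at 37°C for 5 hours, then given 15 min with DNase I before an EDTA stop, and they cleaved during both steps. Reverse transcription with template switching preceded Illumina sequencing. Relative activity divides a variant's cleaved/total read fraction by the unmutated ribozyme's. At least 5 reads were required per variant, and three batches were averaged.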
In the case of A15U U41C, the self-cleavage is reported as 0.92.
In the case of A15U U41A, the self-cleavage is reported as 0.17.
A15U U41G showed a self-cleavage of 0.26.
G16C A28G showed a self-cleavage of 0.15.
In the case of G16C A28U, the self-cleavage is reported as 0.24.
With G16C U31C the self-cleavage was 0.18.
Variant A15U G42A has a self-cleavage of 0.61.
For G16C A56G, the self-cleavage was 0.21.
For G16A A20G, the self-cleavage was 0.24.
With G16A A20U the self-cleavage was 0.16.
Work on G16C U49C yielded a self-cleavage of 0.08.
G16C G24C showed a self-cleavage of 0.2.
With G16C C37U the self-cleavage was 0.16.
A15U G16A showed a self-cleavage of 0.57.
Work on A15U G16U yielded a self-cleavage of 0.3.
In the case of A15U U67G, the self-cleavage is reported as 0.11.
Variant A15U U67A has a self-cleavage of 0.2.
With A15U U67C the self-cleavage was 0.22.
For G16C G36U, the self-cleavage was 0.17.
Variant A15U U25A has a self-cleavage of 0.2.
With A15U U25C the self-cleavage was 0.25.
For A15U U25G, the self-cleavage was 0.46.
Work on G16A G33U yielded a self-cleavage of 0.18.
In the case of G16A U41G, the self-cleavage is reported as 0.12.
For G16A U41C, the self-cleavage was 0.49.
For G16A U41A, the self-cleavage was 0.1.
G16A U31G gave a self-cleavage of 0.47.
Work on G16A U31A yielded a self-cleavage of 0.19.
With A15U U48A the self-cleavage was 0.17.
Work on A15U U48C yielded a self-cleavage of 0.33.
For A15U U48G, the self-cleavage was 0.35.
G16A G30C showed a self-cleavage of 0.05.
For G16A G30A, the self-cleavage was 0.06.
Variant G16A has a self-cleavage of 0.34.
With G16C the self-cleavage was 0.35.
G16A U54C gave a self-cleavage of 0.66.
Work on A15U G73A yielded a self-cleavage of 1.24.
In the case of A15U G73U, the self-cleavage is reported as 1.17.
G16A U60C showed a self-cleavage of 0.19.
With G16A U78A the self-cleavage was 0.52.
G16A U78C gave a self-cleavage of 0.59.
With A15U U72C the self-cleavage was 0.87.
For A15U U72A, the self-cleavage was 1.09.
In the case of A15U U72G, the self-cleavage is reported as 0.91.
G16A C23A gave a self-cleavage of 0.08.
A15U C81A gave a self-cleavage of 0.32.
With A15U C81U the self-cleavage was 1.14.
With G16A C39U the self-cleavage was 0.15.
With G16A C39A the self-cleavage was 0.33.
Variant G16C A21G has a self-cleavage of 0.32.
In the case of G16C A21U, the self-cleavage is reported as 0.1.
Work on A15U G61A yielded a self-cleavage of 0.37.
In the case of A15U G61C, the self-cleavage is reported as 0.07.
For G16C U48G, the self-cleavage was 0.18.
Variant A15U U26G has a self-cleavage of 0.44.
With A15U U26A the self-cleavage was 0.54.
A15U U26C showed a self-cleavage of 0.25.
For A15U U69G, the self-cleavage was 0.34.
For A15U U69C, the self-cleavage was 0.35.
A15U U69A showed a self-cleavage of 0.25.
For G16C A45U, the self-cleavage was 0.13.
With G16C A45G the self-cleavage was 0.42.
For A15U G19C, the self-cleavage was 0.17.
With A15U G19U the self-cleavage was 0.23.
With A15U G70A the self-cleavage was 0.32.
For A15U G70C, the self-cleavage was 0.17.
G16A C79A showed a self-cleavage of 0.81.
Variant A15U G63A has a self-cleavage of 0.67.
A15U G63U showed a self-cleavage of 0.93.
Variant A15U U54A has a self-cleavage of 0.8.
In the case of A15U U54C, the self-cleavage is reported as 0.77.
A15U U54G gave a self-cleavage of 0.59.
Variant G16A C27A has a self-cleavage of 0.17.
For A15U U78A, the self-cleavage was 0.48.
In the case of A15U U78C, the self-cleavage is reported as 0.7.
For G16C G22C, the self-cleavage was 0.07.
Variant G16C C50U has a self-cleavage of 0.18.
G16A G73C showed a self-cleavage of 0.86.
Variant A15U G55A has a self-cleavage of 0.46.
A15U G55U showed a self-cleavage of 0.68.
With G16C U41C the self-cleavage was 0.42.
In the case of G16C C23A, the self-cleavage is reported as 0.5.
A15U G30U gave a self-cleavage of 0.15.
With A15U G30C the self-cleavage was 0.15.
A15U G52A gave a self-cleavage of 1.05.
In the case of A15U C71U, the self-cleavage is reported as 0.33.
A15U U49A showed a self-cleavage of 0.64.
A15U U49G gave a self-cleavage of 0.36.
With A15U U49C the self-cleavage was 0.15.
A15U U58A showed a self-cleavage of 0.16.
For A15U U58C, the self-cleavage was 0.26.
With G16A U43C the self-cleavage was 0.39.
Variant G16A U43A has a self-cleavage of 0.74.
In the case of G16C A20G, the self-cleavage is reported as 0.11.
A15U U74C showed a self-cleavage of 0.97.
In the case of A15U U74G, the self-cleavage is reported as 0.97.
For A15U U74A, the self-cleavage was 1.02.
Work on G16A A47G yielded a self-cleavage of 0.5.
In the case of A15U U80A, the self-cleavage is reported as 1.01.
With A15U U80C the self-cleavage was 1.03.
With A15U C79U the self-cleavage was 1.14.
In the case of A15U C79A, the self-cleavage is reported as 1.03.
A15U C79G gave a self-cleavage of 1.08.
Work on A15U U66C yielded a self-cleavage of 0.23.
A15U U66A gave a self-cleavage of 0.34.
G16A U69A showed a self-cleavage of 0.19.
G16A U69G gave a self-cleavage of 0.2.
For G16A U69C, the self-cleavage was 0.16.
In the case of G16C A57G, the self-cleavage is reported as 0.57.
G16A A56G showed a self-cleavage of 0.4.
In the case of G16A A56U, the self-cleavage is reported as 0.13.
Work on G16A U25A yielded a self-cleavage of 0.36.
Work on G16A U25C yielded a self-cleavage of 0.18.
A15U U60A showed a self-cleavage of 0.32.
A15U U60C gave a self-cleavage of 0.31.
For A15U G22C, the self-cleavage was 0.06.
G16C A64U showed a self-cleavage of 0.28.
Work on G16A A45G yielded a self-cleavage of 0.45.
In the case of G16A A45C, the self-cleavage is reported as 0.14.
Variant G16C A35G has a self-cleavage of 0.83.
For A15U G24C, the self-cleavage was 0.08.
G16C U43C gave a self-cleavage of 0.21.
G16A U72G showed a self-cleavage of 0.16.
Work on G16A U72C yielded a self-cleavage of 0.79.
In the case of G16A U72A, the self-cleavage is reported as 0.36.
Variant G16C A47G has a self-cleavage of 0.25.
For G16A U74A, the self-cleavage was 1.21.
G16A U74C showed a self-cleavage of 0.77.
Work on G16A A64G yielded a self-cleavage of 0.45.
Variant G16A A64U has a self-cleavage of 0.19.
For G16A A35G, the self-cleavage was 1.02.
With A15U G36C the self-cleavage was 0.13.
Work on A15U G36U yielded a self-cleavage of 0.08.
Work on G16C G52U yielded a self-cleavage of 0.48.
For G16A A57G, the self-cleavage was 0.27.
Work on G16A A28G yielded a self-cleavage of 0.25.
Variant G16A A28U has a self-cleavage of 0.21.
For G16A U49A, the self-cleavage was 0.4.
A15U U43A gave a self-cleavage of 0.88.
With A15U U43C the self-cleavage was 0.41.
Work on A15U U43G yielded a self-cleavage of 0.25.
Variant G16A U67C has a self-cleavage of 0.11.
Work on G16A U67A yielded a self-cleavage of 0.34.
G16A U51A showed a self-cleavage of 0.57.
G16A U51C gave a self-cleavage of 0.18.
Work on G16A C37U yielded a self-cleavage of 0.24.
A15U G33U showed a self-cleavage of 0.52.
A15U G33A showed a self-cleavage of 0.17.
Variant G16A A77G has a self-cleavage of 0.54.
In the case of G16C A77G, the self-cleavage is reported as 0.21.
Variant A15U U51G has a self-cleavage of 0.89.
In the case of A15U U51A, the self-cleavage is reported as 0.82.
A15U U51C showed a self-cleavage of 0.54.
G16A U58A gave a self-cleavage of 0.12.
For A15U U76C, the self-cleavage was 0.88.
With A15U U76A the self-cleavage was 1.17.
With G16A A21U the self-cleavage was 0.2.
Variant G16A A21G has a self-cleavage of 0.16.
G16C U26A showed a self-cleavage of 0.3.
Work on G16C U26C yielded a self-cleavage of 0.23.
G16C A18U gave a self-cleavage of 0.28.
A15U U31A gave a self-cleavage of 0.45.
With A15U U31C the self-cleavage was 0.35.
With A15U U31G the self-cleavage was 0.39.
G16C U25C gave a self-cleavage of 0.21.
Work on G16A U26C yielded a self-cleavage of 0.13.
Variant G16A U26A has a self-cleavage of 0.34.

— the RNAGym collection of RNA variant scans (doi:10.1093/nar/gkz1192)
